Data: patent EP3409295A1 (priority 2016, dated 2017)
Where two headings read alike, the source gives them in different places.

How the values were obtained:
[1] = in vivo; conditions: female, SD, rat, iv, 5 mg/kg
[2] = system: ICR mice; conditions: mouse, in vivo, iv
[3] = system: ICR mice; conditions: mouse, in vivo, iv; remark: listed apart in the source
[4] = SD rats; for F: oral 50 mg/kg versus intravenous 10 mg/kg
[5] = system: ICR mice; test: Tail flick test (heat radiation pain tester); assay type: in vivo; conditions: tail vein, morphine 5 mg/kg, other doses as in the writhing test
[6] = system: rats; conditions: rat, in vivo
[7] = intravenous administration, 10 mg/kg

| Structure (SMILES) | level at 10 min [1] | level at 1 h [1] | level at 3 h [1] | tissue level at time at 10 min [1] | tissue level at time at 1 h [1] | tissue level at time at 3 h [1] | AUCINF [4, 7] | AUClast [4, 7] | CL [4, 7] | MRTINF [4, 7] | T1/2 [4, 7] | Vss [4, 7] | Vz [4, 7] | F [4] | AUCINF ([4]; oral administration, 50 mg/kg) | AUClast ([4]; oral administration, 50 mg/kg) | Cmax ([4]; oral administration, 50 mg/kg) | T1/2 ([4]; oral administration, 50 mg/kg) | Tmax ([4]; oral administration, 50 mg/kg) | other results |
| --- | --- | --- | --- | --- | --- | --- | --- | --- | --- | --- | --- | --- | --- | --- | --- | --- | --- | --- | --- | --- |
| CN1CC[C@]23c4c5ccc(O)c4O[C@H]2[C@@H](OCCOCCOCCOCCOCCOCCOCCO[C@H]2C=C[C@H]4[C@H]6Cc7ccc(O)c8c7[C@@]4(CCN6C)[C@H]2O8)C=C[C@H]3[C@H]1C5 [α-6-O-PEG7-(morphine)2] | 1170 ng/mL | 117 ng/mL | 71 ng/mL | 177 ng/g | 111 ng/g | 105 ng/g |  |  |  |  |  |  |  |  |  |  |  |  |  |  |
| COc1ccc2c3c1O[C@H]1C(=O)CC[C@@]4(O)[C@@H](C2)N(C)CC[C@]314 [Oxycodone, oxycodone] |  |  |  |  |  |  |  |  |  |  |  |  |  |  |  |  |  |  |  | Number of Writhing ([2]; 5 mg/kg): 9.9±3.2 |
| COCCOCCOCCOCCO[C@H]1C=C[C@H]2[C@H]3Cc4ccc(O)c5c4[C@@]2(CCN3C)[C@H]1O5 [α-6-O-mPEG4-morphine, reference compound] |  |  |  |  |  |  |  |  |  |  |  |  |  |  |  |  |  |  |  | Number of Writhing ([3]; 10 mg/kg): 12.1±2.3 |
| COc1ccc2c3c1O[C@H]1[C@@H](OCCOCCOCCOCCOCCOCCO[C@H]4C=C[C@H]5[C@H]6Cc7ccc(OC)c8c7[C@@]5(CCN6C)[C@H]4O8)C=C[C@H]4[C@@H](C2)N(C)CC[C@@]341 [α-6-O-PEG6-(codeine)2] | 1740 ng/mL | 445 ng/mL | 67 ng/mL | 102 ng/g | 100 ng/g | 97 ng/g |  |  |  |  |  |  |  |  |  |  |  |  |  | Number of Writhing ([3]; 30 mg/kg): 34.1±3.3 |
| CN1CC[C@]23c4c5ccc(O)c4O[C@H]2[C@@H](OCCOCCOCCOCCOCCOCCOCCOCCOCCO[C@H]2C=C[C@H]4[C@H]6Cc7ccc(O)c8c7[C@@]4(CCN6C)[C@H]2O8)C=C[C@H]3[C@H]1C5 [α-6-O-PEG9-(morphine)2] | 1230 ng/mL | 201 ng/mL | 101 ng/mL | 152 ng/g | 125 ng/g | 123 ng/g | 259 ng·h/mL | 221 ng·h/mL | 166 mL/min/k g | 7.91 h | 8.33 h | 60.1 L/kg | 92 L/kg | 5.2% | 17 ng·h/mL | 11 ng·h/mL | 11 | 11.5 h | 3.0 h |  |
| CN1CC[C@]23c4c5ccc(O)c4O[C@H]2[C@@H](O)C=C[C@H]3[C@H]1C5 [Morphine, morphine] |  |  |  |  |  |  |  |  |  |  |  |  |  |  |  |  |  |  |  | Heat pain value ([5]; 0 hr (base value before administration)): 14.0 ± 2.2 s; Heat pain value ([5]; 0.25 hr after administration): 22.7 ± 5.1 s; Heat pain value ([5]; 1hr after administration): 42.4 ± 5.1 s; Heat pain value ([5]; 2 hr after administration): 29.0 ± 4.7 s; Heat pain value ([5]; 6 hr after administration): 13.5 ± 1.2 s; Heat pain value ([5]; 24 hr after administration): 13.8 ± 1.5 s; Nose-pokes [6]: 24.0±2.2; Number of Writhing ([2]; 5 mg/kg): 10.2±2.1 |
| CN1CC[C@]23c4c5ccc(O)c4O[C@H]2[C@@H](OCCOCCOCCOCCOCCOCCO[C@H]2C=C[C@H]4[C@H]6Cc7ccc(O)c8c7[C@@]4(CCN6C)[C@H]2O8)C=C[C@H]3[C@H]1C5 [α-6-O-PEG6-(morphine)2] | 1200 ng/mL | 123 ng/mL | 72 ng/mL | 163 ng/g | 133 ng/g | 111 ng/g | 158 ng·h/mL | 144 ng·h/mL | 204 mL/min/k g | 3.22 h | 3.42 h | 38.6 L/kg | 57.7 L/kg | 21.2% | 84 ng·h/mL | 73 ng·h/mL | 54 | 4.8 h | 3 h | Number of Writhing ([3]; 10 mg/kg): 24.3±3.4 |
| COCCOCCOCCOCCOCCOCCO[C@H]1C=C[C@H]2[C@H]3Cc4ccc(O)c5c4[C@@]2(CCN3C)[C@H]1O5 [α-6-O-mPEG6-morphine, reference compound] |  |  |  |  |  |  |  |  |  |  |  |  |  |  |  |  |  |  |  | Number of Writhing ([3]; 10 mg/kg): 15.3±3.4 |
| CN1CC[C@]23c4c5ccc(O)c4O[C@H]2[C@@H](OCCOCCOCCO[C@H]2C=C[C@H]4[C@H]6Cc7ccc(O)c8c7[C@@]4(CCN6C)[C@H]2O8)C=C[C@H]3[C@H]1C5 [α-6-O-PEG3-(morphine)2] | 1020 ng/mL | 119 ng/mL | 32 ng/mL | 387 ng/g | 262 ng/g | 167 ng/g | 112 ng·h/mL | 104 ng·h/mL | 296 mL/min/k g | 2.18 h | 2.31 h | 27.8 L/kg | 43 L/kg | 3.2% | 18 ng·h/mL | 15 ng·h/mL | 12 | 5.1 h | 2 h |  |
| COc1ccc2c3c1O[C@H]1[C@@H](OCCOCCOCCOCCO[C@H]4C=C[C@H]5[C@H]6Cc7ccc(OC)c8c7[C@@]5(CCN6C)[C@H]4O8)C=C[C@H]4[C@@H](C2)N(C)CC[C@@]341 [α-6-O-PEG4-(codeine)2] | 1660 ng/mL | 233 ng/mL | 43 ng/mL | 121 ng/g | 110 ng/g | 107 ng/g |  |  |  |  |  |  |  |  |  |  |  |  |  | Number of Writhing ([3]; 30 mg/kg): 31.3±4.1 |
| COc1ccc2c3c1O[C@H]1[C@@H](O)C=C[C@H]4[C@@H](C2)N(C)CC[C@@]341 [Codeine, codeine] |  |  |  |  |  |  |  |  |  |  |  |  |  |  |  |  |  |  |  | Number of Writhing ([2]; 30 mg/kg): 13.4±3.1 |
| CN1CC[C@]23c4c5ccc(O)c4O[C@H]2[C@@H](OCCOCCOCCOCCOCCOCCOCCOCCO[C@H]2C=C[C@H]4[C@H]6Cc7ccc(O)c8c7[C@@]4(CCN6C)[C@H]2O8)C=C[C@H]3[C@H]1C5 [α-6-O-PEG8-(morphine)2] | 1230 ng/mL | 167 ng/mL | 90 ng/mL | 140 ng/g | 153 ng/g | 127 ng/g | 188 ng·h/mL | 162 ng·h/mL | 221 mL/min/k g | 10.8 h | 6.83 h | 84.7 L/kg | 125.2 L/kg | 7.6% | 31 ng·h/mL | 22 ng·h/mL | 22 | 5.2 h | 3 h |  |
| CN1CC[C@]23c4c5ccc(O)c4O[C@H]2[C@@H](OCCOCCOCCOCCOCCO[C@H]2C=C[C@H]4[C@H]6Cc7ccc(O)c8c7[C@@]4(CCN6C)[C@H]2O8)C=C[C@H]3[C@H]1C5 [α-6-O-PEG5-(morphine)2] | 926 ng/mL | 101 ng/mL | 51 ng/mL | 125 ng/g | 123 ng/g | 95 ng/g | 128 ng·h/mL | 109 ng·h/mL | 261 mL/min/k g | 3.52 h | 3.71 h | 55.2 L/kg | 84 L/kg | 28.2% | 156 ng·h/mL | 129 ng·h/mL | 75 | 7.8 h | 2.0 h |  |
| CN1CC[C@]23c4c5ccc(O)c4O[C@H]2[C@@H](OCCOCCOCCOCCO[C@H]2C=C[C@H]4[C@H]6Cc7ccc(O)c8c7[C@@]4(CCN6C)[C@H]2O8)C=C[C@H]3[C@H]1C5 [α-6-O-PEG4-(morphine)2] | 1120 ng/mL | 114 ng/mL | 42 ng/mL | 226 ng/g | 198 ng/g | 164 ng/g | 137 ng·h/mL | 122 ng·h/mL | 238 mL/min/k g | 6.12 h | 4.71 h | 64.3 L/kg | 94.3 L/kg | 17.1% | 81 ng·h/mL | 70 ng·h/mL | 47 | 6.4 h | 3 h | Number of Writhing ([3]; 10 mg/kg): 20.1±2.3 |
| CN1CC[C@]23c4c5ccc(O)c4O[C@H]2[C@@H](OCCOCCO[C@H]2C=C[C@H]4[C@H]6Cc7ccc(O)c8c7[C@@]4(CCN6C)[C@H]2O8)C=C[C@H]3[C@H]1C5 [α-6-O-PEG2-(morphine)2] | 1210 ng/mL | 123 ng/mL | 43 ng/mL | 554 ng/g | 342 ng/g | 221 ng/g | 107 ng·h/mL | 90 ng·h/mL | 307 mL/min/k g | 2.08 h | 2.88 h | 37.2 L/kg | 52.1 L/kg | 4.8% | 35 ng·h/mL | 27 ng·h/mL | 18 | 4.0 h | 2 h |  |
| CN1CC[C@]23c4c5ccc(O)c4O[C@H]2[C@@H](OCCO[C@H]2C=C[C@H]4[C@H]6Cc7ccc(O)c8c7[C@@]4(CCN6C)[C@H]2O8)C=C[C@H]3[C@H]1C5 [α-6-O-PEG1-(morphine)2] | 891 ng/mL | 138 ng/mL | 38 ng/mL | 687 ng/g | 299 ng/g | 183 ng/g | 98 ng·h/mL | 83 ng·h/mL | 342 mL/min/k g | 2.46 h | 2.59 h | 47.3 L/kg | 72 L/kg | 3.7% | 92 ng·h/mL | 78 ng·h/mL | 56 | 11 h | 1.0 h |  |
